From patent publication US9944700B2, “Notch2 binding molecules for treating respiratory diseases” (NOVARTIS AG, priority 2013, dated 2018)

Test system: bronchospheres (human bronchial epithelial cells)
Assay: Bronchosphere assay of secreted recombinant human proteins, qPCR of cell type markers and immunostaining
Format: cell-based
Conditions: for change in expression of at least one cell-type marker, initial screen: 55 proteins tested at 3.3, 10 and 30 ng/mL; for expression of both of the ciliated cell markers: markers FOXJ1, DNAI2; for expression of at least two of the goblet cell markers: markers MUC5AC, MUC5B, FOXA3; for change in expression of at least one of the cell-type markers, on validation: expanded concentration range
Procedure: Human bronchial epithelial (HBE) cells and culture media were obtained from Lonza. Air-liquid interface cultures using passage 2 (P2) cells were performed as previously described (Danahay, H. et al., American journal of physiology. Lung cellular and molecular physiology 282, L226-236 (2002)). For three-dimensional culturing of HBE cells, P1 cells were trypsinized and resuspended (30,000 cells/ml) in HBE differentiation media containing 5% growth factor-reduced Matrigel (BD Biosciences). 20 μl of suspension was plated in each well of a 384-well plate (Greiner) pre-coated with 10 μl of a 25% solution of Matrigel (BD Biosciences) in HBE differentiation media. Wells were fed or treated at day 2 and day 8 of culture by adding 30 μl of differentiation media containing the appropriate treatment. Three-dimensional cultures were analyzed at the time points indicated.
Immunofluorescence of HBEC bronchospheres was performed as described previously for MCF10A cysts (Debnath, J. et al., Methods 30, 256-268 (2003) with the following modifications. After incubation with fluorescence-conjugated secondary antibodies, DNA was stained with a 1:1 mix of PBS and ProLong gold antifade containing DAPI. Confocal microscopy was performed at room temperature on a microscope (Zeiss LSM510 Meta) using an EC Plan-Neofluar 10×/0.30 dry objective (Zeiss), an EC Plan-Neofluor 20×/0.5 dry objective (Zeiss), a C-Apochromat 40×/1.2 W corr (Zeiss), or a C-Apochromat 63×/1.2 W Corr objective (Zeiss). Images were collected with Zen confocal software (Zeiss). Scale bars were added, and images were processed using Zen (Zeiss) and Photoshop (Adobe). Air-liquid interface (ALI) cultures were processed for immunofluorescence analysis after 14 days of culture at ALI by rinsing the apical surface of each filter with PBS, and then fixing in 4% paraformaldehyde for 4 hours. Filters were washed with IF buffer (130 mM NaCl, 7 mM Na2HPO4, 3.5 mM NaH2PO4, 7.7 mM NaN3, 0.1% bovine serum albumin, 0.2% Triton X-100, 0.05% Tween-20), blocked with IF wash containing 10% goat serum, and stained with primary antibody in IF wash containing 10% goat serum overnight at 4° C. Secondary antibodies were used at a 1:200 dilution in IF buffer containing 10% goat serum. To quantify the total staining area of ALI cultures, 10×13 images were collected with a plan Neofluar 10×0.3 NA Ph1 objective (EC; Carl Zeiss, Inc.) on a microscope (Axiovert 200; Carl Zeiss, Inc.) equipped with a motorized stage and a camera (Orca-ER-1394; Hamamatsu Photonics) controlled by Axiovision software (Carl Zeiss, Inc.) and used to generate a single composite image using the MOSAIX function in Zeiss Axiovision. Quantification of the total staining area was performed with ImageJ. Two to three regions of each ALI culture were punched out with a 4 mm biopsy punch (Miltex, Inc.) and mounted in ProLong gold antifade containing DAPI for imaging by confocal microscopy on a microscope (Axiovert 200; Carl Zeiss, Inc.) equipped with a motorized stage, a Yokogawa CSU-X1 spinning disc head, and an EMCCD camera (Evolve 512, Photometrics), with a Plan-Apochromat 100×/1.4 Oil DIC objective (Zeiss). Cells positive for MUC5AC, MUC5B, or cilia (acetylated α-Tubulin) staining were counted manually. For time-lapse video microscopy, HBECs were imaged at the indicated times during bronchosphere development at 37° C. with a plan Neofluar 10×0.3 NA Ph1 objective (EC; Carl Zeiss, Inc.). Images were taken every 5 min for the indicated time period. Annotations (time stamp and scale bar) were added and videos were assembled using Axiovision software.
RNA was isolated from 3D bronchosphere cultures with Trizol (Invitrogen), using manufacturer's specifications. To isolate RNA from mouse tissue, approximately 20 mg of tissue was placed in a 1.5 ml eppendorf tube with 1 ml of Buffer RLT Plus (Qiagen). A 5 mm stainless steel bead (Qiagen) was added to the tube, and the tissue was sheared using a Tissue Lyser II (Qiagen).

[1] = IL-13 treated bronchospheres, immunostaining, FIG. 2c
[2] = IL-13 treatment between days 2 and 14 after seeding, qPCR, FIG. 2a

Molecule: IFN-γ: secreted, recombinant human protein profiled in the bronchosphere assay
- change in expression of at least one cell-type marker, initial screen: concentration-dependent change
- expression of both of the ciliated cell markers: attenuated
- expression of at least two of the goblet cell markers: enhanced
- change in expression of at least one of the cell-type markers, on validation: robust change

Molecule: IL1-β: secreted, recombinant human protein profiled in the bronchosphere assay
- change in expression of at least one cell-type marker, initial screen: concentration-dependent change
- expression of both of the ciliated cell markers: attenuated
- expression of at least two of the goblet cell markers: enhanced
- change in expression of at least one of the cell-type markers, on validation: robust change

Molecule: IL-13: secreted, recombinant human protein (inflammatory cytokine) profiled in the bronchosphere assay
- change in expression of at least one cell-type marker, initial screen: concentration-dependent change
- acetylated α-tubulin positive structures [1]: lack
- secreted mucins in the central lumen [1]: accumulation
- ciliated cell marker expression [2]: declined
- expression of markers of goblet cells [2]: clear enhancement
- concentrations toxic and disrupting bronchosphere formation (data not shown): > 3 ng/mL
- expression of both of the ciliated cell markers: attenuated
- expression of at least two of the goblet cell markers: enhanced
- change in expression of at least one of the cell-type markers, on validation: robust change

B1: IL-1a: secreted, recombinant human protein profiled in the bronchosphere assay (protein, UniProt P01583 113-271, looked up)
Interleukin-1 alpha: SAPFSFLSNVKYNFMRIIKYEFILNDALNQSIIRANDQYLTAAALHNLDEAVKFDMGAYKSSKDDAKITVILRISKTQLYVTAQDEDQPVLLKEMPEIPKTITGSETNLLFFWETHGTKNYFTSVAHPNLFIATKQDYWVCLAGGPPSITDFQILENQA
- change in expression of at least one cell-type marker, initial screen: concentration-dependent change
- expression of both of the ciliated cell markers: attenuated
- expression of at least two of the goblet cell markers: enhanced
- change in expression of at least one of the cell-type markers, on validation: robust change

B2: IL-28A: secreted, recombinant human protein profiled in the bronchosphere assay (protein, UniProt Q8IZJ0 26-200, looked up)
Interferon lambda-2: VPVARLHGALPDARGCHIAQFKSLSPQELQAFKRAKDALEESLLLKDCRCHSRLFPRTWDLRQLQVRERPMALEAELALTLKVLEATADTDPALVDVLDQPLHTLHHILSQFRACIQPQPTAGPRTRGRLHHWLYRLQEAPKKESPGCLEASVTFNLFRLLTRDLNCVASGDLCV
- change in expression of at least one cell-type marker, initial screen: concentration-dependent change
- expression of both of the ciliated cell markers: attenuated
- expression of at least two of the goblet cell markers: enhanced
- change in expression of at least one of the cell-type markers, on validation: robust change

B3: IL-28B: secreted, recombinant human protein profiled in the bronchosphere assay (protein, UniProt Q8IZI9 22-196, looked up)
Interferon lambda-3: VPVARLRGALPDARGCHIAQFKSLSPQELQAFKRAKDALEESLLLKDCKCRSRLFPRTWDLRQLQVRERPVALEAELALTLKVLEATADTDPALGDVLDQPLHTLHHILSQLRACIQPQPTAGPRTRGRLHHWLHRLQEAPKKESPGCLEASVTFNLFRLLTRDLNCVASGDLCV
- change in expression of at least one cell-type marker, initial screen: concentration-dependent change
- expression of both of the ciliated cell markers: attenuated
- expression of at least two of the goblet cell markers: enhanced
- change in expression of at least one of the cell-type markers, on validation: robust change

B4: FGF-7: secreted, recombinant human protein profiled in the bronchosphere assay (protein, UniProt P21781 32-194, looked up)
Fibroblast growth factor 7: CNDMTPEQMATNVNCSSPERHTRSYDYMEGGDIRVRRLFCRTQWYLRIDKRGKVKGTQEMKNNYNIMEIRTVAVGIVAIKGVESEFYLAMNKEGKLYAKKECNEDCNFKELILENHYNTYASAKWTHNGGEMFVALNQKGIPVRGKKTKKEQKTAHFLPMAIT
- change in expression of at least one cell-type marker, initial screen: concentration-dependent change
- expression of MUC5B (bronchosphere assay): enhanced
- effect on any of the other markers (markers other than MUC5B): without affecting

B5: IL-29: secreted, recombinant human protein profiled in the bronchosphere assay (protein, UniProt Q8IU54 20-200, looked up)
Interferon lambda-1: GPVPTSKPTTTGKGCHIGRFKSLSPQELASFKKARDALEESLKLKNWSCSSPVFPGNWDLRLLQVRERPVALEAELALTLKVLEAAAGPALEDVLDQPLHTLHHILSQLQACIQPQPTAGPRPRGRLHHWLHRLQEAPKKESAGCLEASVTFNLFRLLTRDLKYVADGNLCLRTSTHPEST
- change in expression of at least one cell-type marker, initial screen: concentration-dependent change
- expression of both of the ciliated cell markers: attenuated
- expression of at least two of the goblet cell markers: enhanced
- change in expression of at least one of the cell-type markers, on validation: robust change
